In patent US5969210, “Methods for the characterization of compounds which stimulate STF-1 expression in pancreatic islet cells” (Research Development Foundation):

Target: BETA-2/E47 heterodimer (reticulocyte lysate) (UniProt Q60430;P15923-2 Q60430:1-355,P15923-2:1-651)
Test: EMSA; BETA-2 and E-47 cDNAs
Details: label: 32P

BETA-2/E47 heterodimer (reticulocyte lysate), sequence (Q60430 whole entry, chain 1 of 2): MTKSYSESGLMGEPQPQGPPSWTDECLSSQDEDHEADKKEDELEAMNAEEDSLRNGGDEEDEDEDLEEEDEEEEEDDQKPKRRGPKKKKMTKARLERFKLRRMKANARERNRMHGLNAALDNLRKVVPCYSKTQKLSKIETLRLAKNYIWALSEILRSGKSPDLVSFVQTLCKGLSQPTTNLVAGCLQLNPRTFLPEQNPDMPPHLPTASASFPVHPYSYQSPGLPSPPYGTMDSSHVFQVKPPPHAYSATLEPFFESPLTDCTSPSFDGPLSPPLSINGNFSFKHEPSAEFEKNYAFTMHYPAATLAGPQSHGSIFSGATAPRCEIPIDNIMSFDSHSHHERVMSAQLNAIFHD
BETA-2/E47 heterodimer (reticulocyte lysate), sequence (P15923 other isoform, or with tags, fused parts or gaps, chain 2 of 2): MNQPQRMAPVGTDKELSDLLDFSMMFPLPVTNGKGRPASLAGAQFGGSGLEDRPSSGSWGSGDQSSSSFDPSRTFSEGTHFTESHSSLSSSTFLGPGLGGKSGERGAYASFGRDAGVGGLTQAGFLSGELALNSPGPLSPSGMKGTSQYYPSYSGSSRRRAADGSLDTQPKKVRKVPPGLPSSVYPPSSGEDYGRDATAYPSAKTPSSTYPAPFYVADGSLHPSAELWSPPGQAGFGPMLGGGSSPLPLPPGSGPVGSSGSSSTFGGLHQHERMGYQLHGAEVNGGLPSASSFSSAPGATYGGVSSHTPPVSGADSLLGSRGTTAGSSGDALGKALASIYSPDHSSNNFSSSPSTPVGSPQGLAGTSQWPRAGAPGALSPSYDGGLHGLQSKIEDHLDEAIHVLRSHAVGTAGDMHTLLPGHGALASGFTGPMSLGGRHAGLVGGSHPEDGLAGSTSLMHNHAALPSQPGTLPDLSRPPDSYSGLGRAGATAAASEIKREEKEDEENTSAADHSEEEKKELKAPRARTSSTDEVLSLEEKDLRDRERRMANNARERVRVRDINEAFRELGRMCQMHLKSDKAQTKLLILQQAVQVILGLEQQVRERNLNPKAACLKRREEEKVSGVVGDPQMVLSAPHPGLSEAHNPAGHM

B1: B element WT (dsDNA)
DNA 1: TCAGTGACAGATGGAGTCCT
DNA 2: AGGACTCCATCTGTCACTGA
B1: binds.
